Measurements published in the supplement of paper PMC10065799, “High-throughput profiling of sequence recognition by tyrosine kinases and SH2 domains using bacterial peptide display” (eLife, 2023).

How the values were obtained:
AncSZ = experiment: phosphorylation enrichment, bacterial display (enrichment ratio); higher = better substrate or ligand; peptides without Tyr show the background
Fyn = Fyn (UniProt P06241); experiment: as above
FGFR1 = FGFR1 (UniProt P11362); experiment: as above
EPHB1 = EPHB1 (UniProt P54762); experiment: as above
c-Src = experiment: as above
Fer (mouse) = experiment: as above
Fes = Fes (UniProt P07332); experiment: as above
c-Abl (mouse) = experiment: as above
Jak2 = Jak2 (UniProt O60674); experiment: as above
MERTK = MERTK (UniProt Q12866); experiment: as above
FGFR3 = FGFR3 (UniProt P22607); experiment: as above
EPHB2 = EPHB2 (UniProt P29323); experiment: as above
Hck = Hck (UniProt P08631); experiment: as above
Grb2 SH2 = Grb2 SH2 (UniProt P62993); experiment: SH2 binding enrichment of the phosphorylated peptide, bacterial display (enrichment ratio); higher = better substrate or ligand; peptides without Tyr show the background
SHP2-C SH2 = experiment: as above
c-Src SH2 = experiment: as above
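For SH2 binding enrichment of the phosphorylated peptide, bacterial display in this document: peptide library displayed on the E. coli surface as eCPX fusions, selected cells deep-sequenced, score is each peptide's frequency after selection divided by its frequency in the input.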
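For phosphorylation enrichment, bacterial display in this document: 11-residue human phosphosite peptides and single-mutation variants displayed on the E. coli surface, counted by deep sequencing, each peptide's frequency after selection divided by its frequency in the unselected input library; frequency after pTyr selection over input frequency; kinase dosed for 20-30% of maximal phosphorylation in three min.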

Chain of FGFR3 (P22607 whole entry, looked up): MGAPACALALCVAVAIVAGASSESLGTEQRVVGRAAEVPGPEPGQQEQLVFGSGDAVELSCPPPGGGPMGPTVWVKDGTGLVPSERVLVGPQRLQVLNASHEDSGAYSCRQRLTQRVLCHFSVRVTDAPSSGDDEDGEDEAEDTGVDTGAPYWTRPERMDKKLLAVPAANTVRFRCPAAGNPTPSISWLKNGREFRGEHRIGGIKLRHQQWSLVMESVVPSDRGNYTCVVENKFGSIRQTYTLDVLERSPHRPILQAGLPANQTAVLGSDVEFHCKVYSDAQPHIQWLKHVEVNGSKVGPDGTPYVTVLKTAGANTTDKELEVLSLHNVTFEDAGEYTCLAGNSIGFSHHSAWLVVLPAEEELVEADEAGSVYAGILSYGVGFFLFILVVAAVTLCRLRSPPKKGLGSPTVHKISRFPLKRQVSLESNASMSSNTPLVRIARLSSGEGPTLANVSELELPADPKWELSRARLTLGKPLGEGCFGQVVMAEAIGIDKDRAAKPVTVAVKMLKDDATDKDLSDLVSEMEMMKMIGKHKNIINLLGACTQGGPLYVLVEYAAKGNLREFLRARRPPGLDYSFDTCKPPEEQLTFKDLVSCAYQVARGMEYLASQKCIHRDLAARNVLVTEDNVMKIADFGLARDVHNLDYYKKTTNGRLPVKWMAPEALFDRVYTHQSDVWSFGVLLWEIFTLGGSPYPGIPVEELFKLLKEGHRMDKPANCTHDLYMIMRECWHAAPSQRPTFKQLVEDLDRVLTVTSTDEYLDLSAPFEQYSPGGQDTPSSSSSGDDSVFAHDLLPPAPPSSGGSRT
Chain of Fes (P07332 whole entry, looked up): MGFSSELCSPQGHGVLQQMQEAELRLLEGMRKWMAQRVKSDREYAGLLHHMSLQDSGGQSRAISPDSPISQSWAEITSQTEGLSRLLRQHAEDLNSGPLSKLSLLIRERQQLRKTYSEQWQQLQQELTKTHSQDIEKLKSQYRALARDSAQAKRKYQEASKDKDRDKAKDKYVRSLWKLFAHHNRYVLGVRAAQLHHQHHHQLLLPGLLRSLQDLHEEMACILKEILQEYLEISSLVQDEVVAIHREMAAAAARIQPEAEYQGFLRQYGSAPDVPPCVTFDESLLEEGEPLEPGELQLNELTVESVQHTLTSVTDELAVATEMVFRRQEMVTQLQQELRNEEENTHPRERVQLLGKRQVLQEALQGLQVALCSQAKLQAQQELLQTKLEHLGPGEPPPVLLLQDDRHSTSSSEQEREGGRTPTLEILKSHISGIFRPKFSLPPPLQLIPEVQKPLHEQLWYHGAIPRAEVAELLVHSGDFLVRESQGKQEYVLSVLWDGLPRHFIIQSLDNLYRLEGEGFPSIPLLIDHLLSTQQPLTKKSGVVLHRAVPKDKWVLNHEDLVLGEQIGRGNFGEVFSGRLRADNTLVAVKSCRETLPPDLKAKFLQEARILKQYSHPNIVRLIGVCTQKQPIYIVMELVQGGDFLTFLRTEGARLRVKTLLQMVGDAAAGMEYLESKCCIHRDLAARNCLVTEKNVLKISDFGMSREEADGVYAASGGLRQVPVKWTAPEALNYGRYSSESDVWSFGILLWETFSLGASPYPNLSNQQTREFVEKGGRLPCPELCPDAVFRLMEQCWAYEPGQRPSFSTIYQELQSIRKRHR
Chain of Jak2 (O60674 whole entry, looked up): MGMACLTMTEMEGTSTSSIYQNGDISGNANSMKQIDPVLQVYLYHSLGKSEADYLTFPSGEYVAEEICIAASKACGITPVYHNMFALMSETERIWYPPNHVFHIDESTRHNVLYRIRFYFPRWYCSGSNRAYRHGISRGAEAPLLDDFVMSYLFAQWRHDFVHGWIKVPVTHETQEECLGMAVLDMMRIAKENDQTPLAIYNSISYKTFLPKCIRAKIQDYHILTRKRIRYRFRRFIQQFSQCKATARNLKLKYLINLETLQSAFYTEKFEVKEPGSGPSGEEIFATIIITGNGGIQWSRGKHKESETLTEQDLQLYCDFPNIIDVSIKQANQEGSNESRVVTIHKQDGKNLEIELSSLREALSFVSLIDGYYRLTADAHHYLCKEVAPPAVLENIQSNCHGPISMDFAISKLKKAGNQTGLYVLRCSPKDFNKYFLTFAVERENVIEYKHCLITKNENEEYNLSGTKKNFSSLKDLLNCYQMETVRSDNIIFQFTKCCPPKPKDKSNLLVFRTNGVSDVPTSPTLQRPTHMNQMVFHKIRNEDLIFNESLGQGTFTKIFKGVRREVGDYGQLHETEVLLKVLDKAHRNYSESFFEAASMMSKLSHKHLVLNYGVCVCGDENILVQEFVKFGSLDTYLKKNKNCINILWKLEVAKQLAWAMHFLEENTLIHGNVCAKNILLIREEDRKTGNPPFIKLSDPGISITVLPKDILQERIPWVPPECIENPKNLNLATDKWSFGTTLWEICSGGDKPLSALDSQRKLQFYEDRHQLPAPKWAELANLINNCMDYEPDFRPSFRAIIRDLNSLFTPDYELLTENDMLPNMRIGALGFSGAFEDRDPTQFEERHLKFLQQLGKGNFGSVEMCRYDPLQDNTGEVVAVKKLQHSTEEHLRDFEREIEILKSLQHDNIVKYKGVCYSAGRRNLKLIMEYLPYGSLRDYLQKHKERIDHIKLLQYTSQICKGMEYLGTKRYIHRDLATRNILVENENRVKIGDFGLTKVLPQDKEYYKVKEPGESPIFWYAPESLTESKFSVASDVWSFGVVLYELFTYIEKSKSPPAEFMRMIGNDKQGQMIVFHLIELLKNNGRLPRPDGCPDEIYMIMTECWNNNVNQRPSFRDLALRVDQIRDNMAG
Chain of EPHB1 (P54762 whole entry, looked up): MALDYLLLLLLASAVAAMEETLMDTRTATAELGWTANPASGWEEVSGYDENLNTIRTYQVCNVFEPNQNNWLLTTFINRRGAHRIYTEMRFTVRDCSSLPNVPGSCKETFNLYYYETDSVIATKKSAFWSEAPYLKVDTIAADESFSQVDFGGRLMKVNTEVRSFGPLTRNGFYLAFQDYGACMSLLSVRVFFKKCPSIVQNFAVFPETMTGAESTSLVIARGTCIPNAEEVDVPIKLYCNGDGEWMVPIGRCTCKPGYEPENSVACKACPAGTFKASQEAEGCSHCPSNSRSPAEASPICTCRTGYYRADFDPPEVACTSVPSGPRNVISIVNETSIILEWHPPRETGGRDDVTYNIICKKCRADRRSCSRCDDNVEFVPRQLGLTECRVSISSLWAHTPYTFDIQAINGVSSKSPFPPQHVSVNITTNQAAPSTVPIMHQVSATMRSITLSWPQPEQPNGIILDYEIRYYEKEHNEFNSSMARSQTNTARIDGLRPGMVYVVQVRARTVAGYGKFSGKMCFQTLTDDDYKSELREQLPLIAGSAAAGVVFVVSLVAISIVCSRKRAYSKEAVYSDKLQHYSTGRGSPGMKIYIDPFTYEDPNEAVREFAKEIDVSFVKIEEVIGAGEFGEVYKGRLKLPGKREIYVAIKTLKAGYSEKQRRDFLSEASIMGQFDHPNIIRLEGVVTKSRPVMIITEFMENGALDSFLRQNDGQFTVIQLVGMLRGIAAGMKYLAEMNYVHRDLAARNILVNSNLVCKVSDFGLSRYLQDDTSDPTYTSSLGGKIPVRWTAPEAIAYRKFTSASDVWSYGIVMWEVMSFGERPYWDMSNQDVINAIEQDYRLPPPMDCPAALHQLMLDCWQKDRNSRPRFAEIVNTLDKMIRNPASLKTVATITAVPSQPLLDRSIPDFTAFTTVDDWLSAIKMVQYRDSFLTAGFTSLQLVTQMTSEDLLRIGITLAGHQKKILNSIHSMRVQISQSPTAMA
Chain of MERTK (Q12866 whole entry, looked up): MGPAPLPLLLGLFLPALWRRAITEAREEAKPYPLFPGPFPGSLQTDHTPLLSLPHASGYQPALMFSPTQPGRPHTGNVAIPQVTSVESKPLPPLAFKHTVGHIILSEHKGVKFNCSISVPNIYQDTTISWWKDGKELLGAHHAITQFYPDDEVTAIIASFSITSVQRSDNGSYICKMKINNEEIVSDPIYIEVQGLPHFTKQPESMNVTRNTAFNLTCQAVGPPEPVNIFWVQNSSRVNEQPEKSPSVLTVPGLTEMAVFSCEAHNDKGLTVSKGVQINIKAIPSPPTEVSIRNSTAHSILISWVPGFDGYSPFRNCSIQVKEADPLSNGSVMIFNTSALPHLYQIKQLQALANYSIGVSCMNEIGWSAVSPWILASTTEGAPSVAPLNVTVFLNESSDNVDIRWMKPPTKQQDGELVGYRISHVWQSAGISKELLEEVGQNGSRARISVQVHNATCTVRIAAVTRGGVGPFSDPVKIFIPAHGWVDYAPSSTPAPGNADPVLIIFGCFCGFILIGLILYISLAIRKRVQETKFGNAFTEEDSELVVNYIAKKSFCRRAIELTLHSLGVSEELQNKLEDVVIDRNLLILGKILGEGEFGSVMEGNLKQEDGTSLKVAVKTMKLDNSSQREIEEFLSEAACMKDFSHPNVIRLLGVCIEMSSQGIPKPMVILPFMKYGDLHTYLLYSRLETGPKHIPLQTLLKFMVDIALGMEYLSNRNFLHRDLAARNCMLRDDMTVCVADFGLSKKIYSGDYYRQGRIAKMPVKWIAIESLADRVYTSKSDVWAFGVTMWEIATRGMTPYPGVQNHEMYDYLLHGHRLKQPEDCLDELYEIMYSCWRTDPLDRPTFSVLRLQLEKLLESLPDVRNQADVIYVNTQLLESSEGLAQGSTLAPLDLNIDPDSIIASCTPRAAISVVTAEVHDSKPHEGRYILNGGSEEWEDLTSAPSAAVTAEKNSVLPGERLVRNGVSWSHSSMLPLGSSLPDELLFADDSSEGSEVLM
Chain of Grb2 SH2 (P62993 whole entry, looked up): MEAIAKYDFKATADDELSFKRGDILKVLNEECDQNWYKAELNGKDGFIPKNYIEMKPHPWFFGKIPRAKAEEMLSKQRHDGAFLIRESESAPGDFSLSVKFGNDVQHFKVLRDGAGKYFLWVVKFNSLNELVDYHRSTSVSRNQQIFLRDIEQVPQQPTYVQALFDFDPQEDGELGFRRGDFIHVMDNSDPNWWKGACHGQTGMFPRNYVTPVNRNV

Sequence	phosphorylation enrichment (AncSZ)	phosphorylation enrichment (Fyn)	phosphorylation enrichment (FGFR1)	phosphorylation enrichment (EPHB1)	phosphorylation enrichment (c-Src)	phosphorylation enrichment (Fer (mouse))	phosphorylation enrichment (Fes)	phosphorylation enrichment (c-Abl (mouse))	phosphorylation enrichment (Jak2)	phosphorylation enrichment (MERTK)	phosphorylation enrichment (FGFR3)	phosphorylation enrichment (EPHB2)	phosphorylation enrichment (Hck)	SH2 binding enrichment (Grb2 SH2)	SH2 binding enrichment (SHP2-C SH2)	SH2 binding enrichment (c-Src SH2)
DYSLKYATDIP [APC_Y1183]	1.35	0.582	0.6	0.78	0.571	0.573	1.29	0.736	1.25	0.5	0.913	0.565	0.6	0.704	0.536	0.443
FQKNVYSEELR [LMNA_Y211_I210V]	0.674	0.613	0.418	0.456	0.68	0.417	0.727	0.535	0.672	0.518	0.449	0.48	0.486	1.24	0.591	0.566
PVDVAYRHGYF [PLEC_Y2967_R2969H]	1.71	0.536	0.863	0.752	0.905	0.543	1.05	1.4	1.9	0.687	1.1	1.48	0.695	1.21	0.701	0.611
CERFSYFGMKA [SLC15A2_Y60_YF]	1.13	0.529	1.24	0.571	0.575	0.467	1.26	0.94	2.66	0.544	0.938	0.745	0.557	1.02	0.577	0.704
RLLCEYQELMN [KRT75_Y434_R432C]	1.5	0.83	0.961	1.34	0.647	0.839	1.78	0.804	1.33	0.369	1.6	1.09	0.761	0.618	0.566	0.54
RPASVYTKRCS [CPT2_Y508]	0.781	0.623	0.586	0.377	0.476	0.459	0.826	0.687	0.444	0.442	0.533	0.603	0.418	1.1	0.643	0.622
SVTCTYSAALN [TP53_Y126_P128A]	1.31	0.657	0.552	0.876	0.836	0.552	1.72	0.947	1.41	0.62	0.929	0.803	0.679	0.686	0.654	0.395
KSVITYSPTTG [ITGB3BP_Y32]	0.49	0.38	0.37	0.325	0.462	0.401	0.592	0.447	0.586	0.403	0.464	0.49	0.353	0.91	0.849	0.507
SNPAYYVLEGV [INPPL1_Y987_N982S]	1	1.25	15.1	0.769	1.21	0.515	0.921	0.538	4	7.46	12.1	0.609	0.917	0.891	1.19	3.28
CQAHGYSCQLI [STK11_Y156_F157S]	0.77	0.648	0.529	0.568	0.435	0.506	0.925	0.492	0.556	0.47	0.531	0.508	0.5	0.854	0.847	0.768
VRFVDYVLFRS [FAM189B_Y361_S358F]	1	0.542	2.27	2.13	0.477	0.458	1.1	0.764	1.01	0.461	1.65	0.919	0.499	2.04	1.77	1.44
QPSPSYDSSRG [TCF12_Y70]	0.68	0.623	0.561	0.534	0.482	0.457	0.661	0.521	0.455	0.414	0.557	0.626	0.553	0.773	0.733	0.393
PVDTYYDSTRG [DYNC2H1_Y2231_M2227V]	1.18	1.09	2.01	0.934	0.955	0.713	1.12	0.953	0.909	0.554	1.58	0.608	1.31	1.08	0.667	0.835
NIEPIYLNMLL [ATR_Y317_V316I]	1.85	8.37	10.7	13.8	6.6	13.3	3.2	15.1	1.42	6.85	7.79	14.5	6.92	0.705	0.63	0.424
MENFIYESMRF [CYP19A1_Y361_YF]	1.3	8.61	0.551	4.14	6.6	14.1	5.1	2.71	0.626	3.74	0.577	2.63	7.67	0.772	0.677	0.562
GYRVYYTPDSR [PTPRF_Y451]	0.794	1.24	0.73	2.35	1.54	0.477	0.768	1.89	2.29	5.3	0.675	2.15	2.69	0.955	0.977	2.77
DVSKEYGHLLP [HRC_Y99]	0.852	0.624	0.551	0.743	0.836	0.656	1.09	0.747	0.687	0.59	0.833	0.608	0.801	0.76	0.581	0.425

Sequence	phosphorylation enrichment (AncSZ)	phosphorylation enrichment (Fyn)	phosphorylation enrichment (FGFR1)	phosphorylation enrichment (EPHB1)	phosphorylation enrichment (c-Src)	phosphorylation enrichment (Fer (mouse))	phosphorylation enrichment (Fes)	phosphorylation enrichment (c-Abl (mouse))	phosphorylation enrichment (Jak2)	phosphorylation enrichment (MERTK)	phosphorylation enrichment (FGFR3)	phosphorylation enrichment (EPHB2)	phosphorylation enrichment (Hck)	SH2 binding enrichment (Grb2 SH2)	SH2 binding enrichment (SHP2-C SH2)	SH2 binding enrichment (c-Src SH2)
FSDPDYLAAVD [GLB1_Y154_S149F]	1.45	0.504	0.479	0.58	0.381	0.475	0.939	0.577	0.928	0.42	0.691	0.556	0.702	0.746	0.551	0.417
PHMQTYEVDLN [SDHB_Y61]	1.17	0.906	0.61	0.978	1.04	1.02	1.29	0.649	1.12	0.51	0.755	0.797	0.804	1.01	0.716	0.874
GENTVYAQVFN [LY9_Y603_M602V]	0.819	6.74	0.599	1.53	5.05	7	0.918	2.92	0.718	2.21	0.616	1.23	6.46	0.829	7.82	1.03
VEGISYDFIPT [CBS_Y308_G307S]	1.28	0.529	0.564	0.578	0.596	0.96	0.982	0.754	0.984	2.96	0.941	0.568	1.9	0.654	0.633	2.11
MKKMHYVDPDH [ST3GAL5_Y99]	0.512	0.364	0.338	0.32	0.402	0.32	0.513	0.41	0.392	0.332	0.357	0.311	0.367	0.9	0.672	0.548
TDEFEYDELIV [TGM1_Y136_YF]	2.29	1.59	1.69	1.12	0.716	0.61	2.77	0.91	1.34	0.622	2.03	2.23	1.56	0.938	0.859	0.563
PFFASYPPSPD [GDAP2_Y491_T489A_YF]	1.03	0.784	0.747	0.99	0.488	0.435	1.23	0.859	1.02	0.769	0.839	0.865	1.11	1.01	0.847	0.658
LDYNEYVRDLN [HPRT1_Y198_F199V]	1.63	0.695	0.951	0.761	0.565	0.535	1.23	0.587	1.06	0.441	1.07	0.993	0.712	0.795	1.03	0.757
DFPGIYSGYDD [POLR1C_Y33_N32I]	1.09	6.48	0.485	0.627	5.19	0.687	1.05	0.796	0.946	0.565	0.696	0.652	3.4	0.835	1	1.44
VYYDLYGGEKF [PTPN11_Y66_D61V]	2.05	5.88	15	4.34	5.53	2.99	1.13	0.918	2.2	8.55	12.8	7.34	6.07	1.34	1.06	2.26
VLSIDYFFPPQ [AR_Y552_P549S_YF]	5.83	0.497	12.7	1.08	0.827	0.516	1.12	0.784	1.58	0.719	10.5	0.843	0.572	1.46	0.998	0.852
GRVYVYHLSEQ [ITGAE_Y551_R552H]	1.03	0.835	0.559	0.645	0.799	0.531	1.13	0.646	0.994	0.386	0.712	0.548	0.602	1.01	6.94	0.907
RRAVKYLQMVG [AVPR2_Y117_C112R]	1.13	0.778	0.52	0.815	0.737	0.431	0.978	0.961	0.887	0.727	0.629	1.01	0.674	0.84	0.695	0.525
SKGFAYVHFDS [PABPC5_Y149_YF]	0.814	0.381	0.393	0.477	0.314	0.408	0.871	0.681	0.832	0.378	0.584	0.466	0.378	1.02	1.29	1.96
PLQSEYSSIST [ITGB4_Y1760_T1764S]	2.59	1.27	0.944	1.81	1.3	1.08	1.28	1.49	0.822	0.582	0.925	2.28	1.93	0.844	0.826	1.17
LQPNNYQFCGG [CSF1R_Y969]	1.49	1.14	1.04	4.08	0.632	0.627	1.18	2.74	1.24	1.6	1.09	2.2	0.86	1.24	0.889	1.44
